Assay results as given in patent publication US20060286609A1 (BIOCHECK, published 2006).

T1: Mouse Id4: Histidine (mouse, UniProt P41139 1-161, limits assumed)
T1 construct: E. coli fusion protein (vector pGW07); also called m-Id4: His; not shown: His-tag
T1 sequence (looked up): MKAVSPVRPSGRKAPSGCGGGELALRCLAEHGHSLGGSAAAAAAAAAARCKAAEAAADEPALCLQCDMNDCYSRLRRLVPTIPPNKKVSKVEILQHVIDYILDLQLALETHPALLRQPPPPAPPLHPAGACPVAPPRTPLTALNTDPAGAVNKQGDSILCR

T2: Human Id4: Histidine (human, UniProt P47928 1-161, limits assumed)
T2 construct: E. coli fusion protein (vector pGW07); also called h-Id4: His; not shown: His-tag
T2 sequence (looked up): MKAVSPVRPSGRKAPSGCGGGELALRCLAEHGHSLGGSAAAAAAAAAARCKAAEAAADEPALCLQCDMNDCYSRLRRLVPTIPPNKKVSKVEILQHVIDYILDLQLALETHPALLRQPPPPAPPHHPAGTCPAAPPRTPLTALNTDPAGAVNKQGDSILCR

T3: Mouse Id1: Histidine (mouse, UniProt P20067-2 1-148)
T3 construct: E. coli fusion protein (vector pGW07); also called m-Id1-His; not shown: His-tag
T3 sequence: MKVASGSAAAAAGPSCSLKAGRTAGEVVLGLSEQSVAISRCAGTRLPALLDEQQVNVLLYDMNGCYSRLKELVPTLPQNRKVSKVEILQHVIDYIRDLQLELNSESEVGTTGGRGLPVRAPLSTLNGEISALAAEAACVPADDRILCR

T4: Mouse Id2: Histidine (mouse, UniProt P41136 1-134, limits assumed)
T4 construct: E. coli fusion protein (vector pGW07); also called m-Id2: His; not shown: His-tag
T4 sequence (looked up): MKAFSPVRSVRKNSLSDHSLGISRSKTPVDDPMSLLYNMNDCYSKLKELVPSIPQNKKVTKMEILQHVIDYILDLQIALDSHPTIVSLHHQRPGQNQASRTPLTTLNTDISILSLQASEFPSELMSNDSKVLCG

T5: Human Id2: Histidine (human, UniProt Q02363 1-134, limits assumed)
T5 construct: E. coli fusion protein (vector pGW07); also called h-Id2: His; not shown: His-tag
T5 sequence (looked up): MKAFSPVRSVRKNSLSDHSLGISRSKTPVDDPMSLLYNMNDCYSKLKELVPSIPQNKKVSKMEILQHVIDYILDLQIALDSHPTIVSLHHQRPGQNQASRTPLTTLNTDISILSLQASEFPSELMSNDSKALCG

T6: Mouse Id3: Histidine (mouse, UniProt P41133 1-119, limits assumed)
T6 construct: E. coli fusion protein (vector pGW07); also called m-Id3: His; not shown: His-tag
T6 sequence (looked up): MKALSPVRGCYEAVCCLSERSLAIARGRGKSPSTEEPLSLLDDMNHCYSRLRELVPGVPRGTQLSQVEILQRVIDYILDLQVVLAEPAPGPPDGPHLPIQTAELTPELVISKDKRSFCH

T7: Human Id3: Histidine (human, UniProt Q02535 1-119, limits assumed)
T7 construct: E. coli fusion protein (vector pGW07); also called h-Id3: His; not shown: His-tag
T7 sequence (looked up): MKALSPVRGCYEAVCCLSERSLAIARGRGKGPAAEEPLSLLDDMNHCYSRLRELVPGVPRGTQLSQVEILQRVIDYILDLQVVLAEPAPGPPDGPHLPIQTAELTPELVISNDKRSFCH


Columns and labels:
Mouse Id4: Histidine [1] = target: T1, Mouse Id4: Histidine; assay: ELISA, coated antigen, Ab 0.100 ug/ml
Human Id4: Histidine [2] = target: T2, Human Id4: Histidine; assay: ELISA, coated antigen, Ab 0.100 ug/ml
Mouse Id1: Histidine [3] = target: T3, Mouse Id1: Histidine; assay: ELISA, coated antigen, Ab 0.100 ug/ml
Mouse Id2: Histidine [4] = target: T4, Mouse Id2: Histidine; assay: ELISA, coated antigen, Ab 0.100 ug/ml
Human Id2: Histidine [5] = target: T5, Human Id2: Histidine; assay: ELISA, coated antigen, Ab 0.100 ug/ml
Mouse Id3: Histidine [6] = target: T6, Mouse Id3: Histidine; assay: ELISA, coated antigen, Ab 0.100 ug/ml
Human Id3: Histidine [7] = target: T7, Human Id3: Histidine; assay: ELISA, coated antigen, Ab 0.100 ug/ml
Mouse Id4: Histidine [8] = target: T1, Mouse Id4: Histidine; assay: ELISA, coated antigen, Ab 0.250 ug/ml
Mouse Id2: Histidine [9] = target: T4, Mouse Id2: Histidine; assay: ELISA, coated antigen, Ab 0.250 ug/ml
Human Id2: Histidine [10] = target: T5, Human Id2: Histidine; assay: ELISA, coated antigen, Ab 0.250 ug/ml
Mouse Id3: Histidine [11] = target: T6, Mouse Id3: Histidine; assay: ELISA, coated antigen, Ab 0.250 ug/ml
Human Id3: Histidine [12] = target: T7, Human Id3: Histidine; assay: ELISA, coated antigen, Ab 0.250 ug/ml
Mouse Id4: Histidine [13] = target: T1, Mouse Id4: Histidine; assay: ELISA, coated antigen; relative to mouse Id1
Human Id4: Histidine [14] = target: T2, Human Id4: Histidine; assay: ELISA, coated antigen; relative to mouse Id1
Mouse Id2: Histidine [15] = target: T4, Mouse Id2: Histidine; assay: ELISA, coated antigen; relative to mouse Id1
Human Id2: Histidine [16] = target: T5, Human Id2: Histidine; assay: ELISA, coated antigen; relative to mouse Id1
Mouse Id3: Histidine [17] = target: T6, Mouse Id3: Histidine; assay: ELISA, coated antigen; relative to mouse Id1
Human Id3: Histidine [18] = target: T7, Human Id3: Histidine; assay: ELISA, coated antigen; relative to mouse Id1
Mouse Id4: Histidine [19] = target: T1, Mouse Id4: Histidine; assay: ELISA, coated antigen, Ab 0.000 ug/ml (blank, diluent only)
Mouse Id1: Histidine [20] = target: T3, Mouse Id1: Histidine; assay: as above
Mouse Id2: Histidine [21] = target: T4, Mouse Id2: Histidine; assay: as above
Human Id3: Histidine [22] = target: T7, Human Id3: Histidine; assay: as above

Row | Molecule | A450 (Mouse Id4: Histidine [1]) | A450 (Human Id4: Histidine [2]) | A450 (Mouse Id1: Histidine [3]) | A450 (Mouse Id2: Histidine [4]) | A450 (Human Id2: Histidine [5]) | A450 (Mouse Id3: Histidine [6]) | A450 (Human Id3: Histidine [7]) | A450 (Mouse Id4: Histidine [8]) | A450 (Mouse Id2: Histidine [9]) | A450 (Human Id2: Histidine [10]) | A450 (Mouse Id3: Histidine [11]) | A450 (Human Id3: Histidine [12]) | Cross-reactivity (%) (Mouse Id4: Histidine [13]) | Cross-reactivity (%) (Human Id4: Histidine [14]) | Cross-reactivity (%) (Mouse Id2: Histidine [15]) | Cross-reactivity (%) (Human Id2: Histidine [16]) | Cross-reactivity (%) (Mouse Id3: Histidine [17]) | Cross-reactivity (%) (Human Id3: Histidine [18]) | A450 (Mouse Id4: Histidine [19]) | A450 (Mouse Id1: Histidine [20]) | further results
1 | rabbit monoclonal anti-mouse/human Id1, clone #BCH-1/#195-14 (antibody) | 0.049 A450 | 0.049 A450 | 2.04 A450 | 0.054 A450 | 0.053 A450 | 0.05 A450 | 0.047 A450 | 0.048 A450 | 0.053 A450 | 0.057 A450 | 0.049 A450 | 0.052 A450 | < 1% | < 1% | < 1% | < 1% | < 1% | < 1% | 0.047 A450 | 0.045 A450 | A450 (Mouse Id2: Histidine [21]): 0.051 A450; A450 (Human Id3: Histidine [22]): 0.049 A450
2 | rabbit monoclonal anti-human Id1, clone #BCH-2/#5-3 (antibody) | 0.049 A450 | 0.047 A450 | 0.068 A450 | 0.049 A450 | 0.054 A450 | 0.05 A450 | 0.046 A450 | 0.053 A450 | 0.052 A450 | 0.056 A450 | 0.05 A450 | 0.048 A450 |  |  |  |  |  |  | 0.045 A450 | 0.046 A450 | A450 (Mouse Id2: Histidine [21]): 0.051 A450; A450 (Human Id3: Histidine [22]): 0.052 A450
3 | rabbit monoclonal anti-mouse Id1, clone #BCH-1/#37-2 (antibody, V domains shown, Rabbit IgG from hybridoma, Protein G purified; also called m Id1 MoAb 37-2; Rabbit Monoclonal Anti-Mouse Id1 (#37-2)) VH: QSVEESGGRLVTPGTPLTLTCKVSGFDINSYAMDWFRQAPGKGLEWIGMMSTRGNTYYTSWAKGRFTISKTSSTTVDLKMTSLTTEDTATYFCARGGLWGPGTLVTVSS VL: RVLTQTASPVSAAVGGTVTINCQASQSVYNGNRLGWYQLKPGQSPKELIHDASTLASGVPSRFRGSGSGTQFTLTINDVQCDDAATYYCVGSYACSTGDCNVFGGGTEVVVK |  |  |  |  |  |  |  |  |  |  |  |  | < 1% | < 1% | < 1% | < 1% | < 1% | < 1% |  |  | 
